{"source": "patent US20140348819A1", "about": "“Methods of Treating Cancer” (Dana-Farber Cancer Institute, Inc., priority 2011, published 2014)", "tested_on": "six V600E BRAF melanoma cell lines", "assay": "Screening of recombinant RTK ligands for ability to confer resistance to BRAFi (PLX4720) or MEKi (PD184352) (Table 4)", "assay_type": "cell-based, human", "parameters": "ability of recombinant RTK ligand to confer resistance / ability of recombinant RTK ligand to confer resistance (screening value): scale not given here", "how_it_was_run": "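Resistance to BRAFi (PLX4720) or MEKi (PD184352) was tested in six V600E BRAF melanoma lines given one of 22 recombinant RTK ligands. For a subset of RTKs, activation was checked by high-throughput tyrosine kinase phosphorylation profiling and western blot.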"}
{"molecule": "Ephrin-A4 (protein, UniProt P52798 26-170, looked up) Ephrin-A4: LRHVVYWNSSNPRLLRGDAVVELGLNDYLDIVCPHYEGPGPPEGPETFALYMVDWPGYESCQAEGPRAYKRWVCSLPFGHVQFSEKIQRFTPFSLGFEFLPGETYYYISVPTPESSGQCLRLQVSVCCKERKSESAHPVGSPGES", "values": [{"measurement": "ability of recombinant RTK ligand to confer resistance", "setting": "A2058, PD184352 - 1 uM, ligand 1.6 ng/ml", "result": 1.00}, {"measurement": "ability of recombinant RTK ligand to confer resistance", "setting": "A2058, PD184352 - 1 uM, ligand 6.25 ng/ml", "result": 1.02}, {"measurement": "ability of recombinant RTK ligand to confer resistance", "setting": "A2058, PD184352 - 1 uM, ligand 25 ng/ml", "result": 0.99}, {"measurement": "ability of recombinant RTK ligand to confer resistance", "setting": "A2058, PD184352 - 1 uM, ligand 100 ng/ml", "result": 1.04}, {"measurement": "ability of recombinant RTK ligand to confer resistance", "setting": "A2058, PD184352 - 1 uM, ligand 400 ng/ml", "result": 1.07}, {"measurement": "ability of recombinant RTK ligand to confer resistance", "setting": "A2058, PLX4720 - 2 uM, ligand 1.6 ng/ml", "result": 0.97}, {"measurement": "ability of recombinant RTK ligand to confer resistance", "setting": "A2058, PLX4720 - 2 uM, ligand 6.25 ng/ml", "result": 0.99}, {"measurement": "ability of recombinant RTK ligand to confer resistance", "setting": "A2058, PLX4720 - 2 uM, ligand 25 ng/ml", "result": 0.96}, {"measurement": "ability of recombinant RTK ligand to confer resistance", "setting": "A2058, PLX4720 - 2 uM, ligand 100 ng/ml", "result": 0.99}, {"measurement": "ability of recombinant RTK ligand to confer resistance", "setting": "A2058, PLX4720 - 2 uM, ligand 400 ng/ml", "result": 0.98}, {"measurement": "ability of recombinant RTK ligand to confer resistance", "setting": "C32, PD184352 - 1 uM, ligand 1.6 ng/ml", "result": 1.02}, {"measurement": "ability of recombinant RTK ligand to confer resistance", "setting": "C32, PD184352 - 1 uM, ligand 6.25 ng/ml", "result": 1.02}, {"measurement": "ability of recombinant RTK ligand to confer resistance", "setting": "C32, PD184352 - 1 uM, ligand 25 ng/ml", "result": 0.98}, {"measurement": "ability of recombinant RTK ligand to confer resistance", "setting": "C32, PD184352 - 1 uM, ligand 100 ng/ml", "result": 1.04}, {"measurement": "ability of recombinant RTK ligand to confer resistance", "setting": "C32, PD184352 - 1 uM, ligand 400 ng/ml", "result": 0.90}, {"measurement": "ability of recombinant RTK ligand to confer resistance", "setting": "C32, PLX4720 - 2 uM, ligand 1.6 ng/ml", "result": 1.04}, {"measurement": "ability of recombinant RTK ligand to confer resistance", "setting": "C32, PLX4720 - 2 uM, ligand 6.25 ng/ml", "result": 1.01}, {"measurement": "ability of recombinant RTK ligand to confer resistance", "setting": "C32, PLX4720 - 2 uM, ligand 25 ng/ml", "result": 1.04}, {"measurement": "ability of recombinant RTK ligand to confer resistance", "setting": "C32, PLX4720 - 2 uM, ligand 100 ng/ml", "result": 1.10}, {"measurement": "ability of recombinant RTK ligand to confer resistance", "setting": "C32, PLX4720 - 2 uM, ligand 400 ng/ml", "result": 1.03}, {"measurement": "ability of recombinant RTK ligand to confer resistance", "setting": "Colo 829, PD184352 - 1 uM, ligand 1.6 ng/ml", "result": 1.08}, {"measurement": "ability of recombinant RTK ligand to confer resistance", "setting": "Colo 829, PD184352 - 1 uM, ligand 6.25 ng/ml", "result": 1.13}, {"measurement": "ability of recombinant RTK ligand to confer resistance", "setting": "Colo 829, PD184352 - 1 uM, ligand 25 ng/ml", "result": 1.01}, {"measurement": "ability of recombinant RTK ligand to confer resistance", "setting": "Colo 829, PD184352 - 1 uM, ligand 100 ng/ml", "result": 0.98}, {"measurement": "ability of recombinant RTK ligand to confer resistance", "setting": "Colo 829, PD184352 - 1 uM, ligand 400 ng/ml", "result": 0.96}, {"measurement": "ability of recombinant RTK ligand to confer resistance", "setting": "Colo 829, PLX4720 - 2 uM, ligand 1.6 ng/ml", "result": 1.06}, {"measurement": "ability of recombinant RTK ligand to confer resistance", "setting": "Colo 829, PLX4720 - 2 uM, ligand 6.25 ng/ml", "result": 1.19}, {"measurement": "ability of recombinant RTK ligand to confer resistance", "setting": "Colo 829, PLX4720 - 2 uM, ligand 25 ng/ml", "result": 1.00}, {"measurement": "ability of recombinant RTK ligand to confer resistance", "setting": "Colo 829, PLX4720 - 2 uM, ligand 100 ng/ml", "result": 0.99}, {"measurement": "ability of recombinant RTK ligand to confer resistance", "setting": "Colo 829, PLX4720 - 2 uM, ligand 400 ng/ml", "result": 0.90}, {"measurement": "ability of recombinant RTK ligand to confer resistance", "setting": "G-361, PD184352 - 1 uM, ligand 1.6 ng/ml", "result": 1.11}, {"measurement": "ability of recombinant RTK ligand to confer resistance", "setting": "G-361, PD184352 - 1 uM, ligand 6.25 ng/ml", "result": 1.09}, {"measurement": "ability of recombinant RTK ligand to confer resistance", "setting": "G-361, PD184352 - 1 uM, ligand 25 ng/ml", "result": 1.04}, {"measurement": "ability of recombinant RTK ligand to confer resistance", "setting": "G-361, PD184352 - 1 uM, ligand 100 ng/ml", "result": 0.98}, {"measurement": "ability of recombinant RTK ligand to confer resistance", "setting": "G-361, PD184352 - 1 uM, ligand 400 ng/ml", "result": 0.86}, {"measurement": "ability of recombinant RTK ligand to confer resistance", "setting": "G-361, PLX4720 - 2 uM, ligand 1.6 ng/ml", "result": 1.08}, {"measurement": "ability of recombinant RTK ligand to confer resistance", "setting": "G-361, PLX4720 - 2 uM, ligand 6.25 ng/ml", "result": 1.05}, {"measurement": "ability of recombinant RTK ligand to confer resistance", "setting": "G-361, PLX4720 - 2 uM, ligand 25 ng/ml", "result": 0.95}, {"measurement": "ability of recombinant RTK ligand to confer resistance", "setting": "G-361, PLX4720 - 2 uM, ligand 100 ng/ml", "result": 1.02}, {"measurement": "ability of recombinant RTK ligand to confer resistance", "setting": "G-361, PLX4720 - 2 uM, ligand 400 ng/ml", "result": 0.88}, {"measurement": "ability of recombinant RTK ligand to confer resistance", "setting": "SK-MEL-5, PD184352 - 1 uM, ligand 1.6 ng/ml", "result": 0.96}, {"measurement": "ability of recombinant RTK ligand to confer resistance", "setting": "SK-MEL-5, PD184352 - 1 uM, ligand 6.25 ng/ml", "result": 0.93}, {"measurement": "ability of recombinant RTK ligand to confer resistance", "setting": "SK-MEL-5, PD184352 - 1 uM, ligand 25 ng/ml", "result": 0.93}, {"measurement": "ability of recombinant RTK ligand to confer resistance", "setting": "SK-MEL-5, PD184352 - 1 uM, ligand 100 ng/ml", "result": 0.98}, {"measurement": "ability of recombinant RTK ligand to confer resistance", "setting": "SK-MEL-5, PD184352 - 1 uM, ligand 400 ng/ml", "result": 0.99}, {"measurement": "ability of recombinant RTK ligand to confer resistance", "setting": "SK-MEL-5, PLX4720 - 2 uM, ligand 1.6 ng/ml", "result": 0.91}, {"measurement": "ability of recombinant RTK ligand to confer resistance", "setting": "SK-MEL-5, PLX4720 - 2 uM, ligand 6.25 ng/ml", "result": 1.07}, {"measurement": "ability of recombinant RTK ligand to confer resistance", "setting": "SK-MEL-5, PLX4720 - 2 uM, ligand 25 ng/ml", "result": 0.99}, {"measurement": "ability of recombinant RTK ligand to confer resistance", "setting": "SK-MEL-5, PLX4720 - 2 uM, ligand 100 ng/ml", "result": 0.99}, {"measurement": "ability of recombinant RTK ligand to confer resistance", "setting": "SK-MEL-5, PLX4720 - 2 uM, ligand 400 ng/ml", "result": 0.93}, {"measurement": "ability of recombinant RTK ligand to confer resistance", "setting": "SK-MEL-28, PD184352 - 1 uM, ligand 1.6 ng/ml", "result": 0.98}, {"measurement": "ability of recombinant RTK ligand to confer resistance", "setting": "SK-MEL-28, PD184352 - 1 uM, ligand 6.25 ng/ml", "result": 0.88}, {"measurement": "ability of recombinant RTK ligand to confer resistance", "setting": "SK-MEL-28, PD184352 - 1 uM, ligand 25 ng/ml", "result": 0.99}, {"measurement": "ability of recombinant RTK ligand to confer resistance", "setting": "SK-MEL-28, PD184352 - 1 uM, ligand 100 ng/ml", "result": 1.07}, {"measurement": "ability of recombinant RTK ligand to confer resistance", "setting": "SK-MEL-28, PD184352 - 1 uM, ligand 400 ng/ml", "result": 0.90}, {"measurement": "ability of recombinant RTK ligand to confer resistance", "setting": "SK-MEL-28, PLX4720 - 2 uM, ligand 1.6 ng/ml", "result": 1.10}, {"measurement": "ability of recombinant RTK ligand to confer resistance", "setting": "SK-MEL-28, PLX4720 - 2 uM, ligand 6.25 ng/ml", "result": 0.84}, {"measurement": "ability of recombinant RTK ligand to confer resistance", "setting": "SK-MEL-28, PLX4720 - 2 uM, ligand 25 ng/ml", "result": 1.05}, {"measurement": "ability of recombinant RTK ligand to confer resistance", "setting": "SK-MEL-28, PLX4720 - 2 uM, ligand 100 ng/ml", "result": 1.10}, {"measurement": "ability of recombinant RTK ligand to confer resistance", "setting": "SK-MEL-28, PLX4720 - 2 uM, ligand 400 ng/ml", "result": 1.00}]}
